According to patent US20180100026A1 (CALIFORNIA INSTITUTE FOR BIOMEDICAL RESEARCH, published 2018):

Key:
CD33 on MOLM14 cells [1] = biological target: T1, CD33 on MOLM14 cells (human, UniProt P20138 18-364); assay: flow cytometry on MOLM-14 (CD33+) cells, MFI against Fab concentration, secondary antibody alone subtracted
T1 construct: whole, on cells; also called MOLM-14 cells (CD33+)
Method: Binding capacity is measured through MFI. MFI of secondary antibody alone was subtracted to account for background and non-specific staining.

CD33 on MOLM14 cells [2] = biological target: T1, CD33 on MOLM14 cells; assay: cell-based or functional assay
[3] = biological target: T2, CAR-FITC (CD8 hinge), anti-FITC (FITC-E2 scFv) chimeric antigen receptor on T cells; assay: flow cytometry on anti-FITC CAR T cells, Alexa Fluor 647 anti-human IgG or anti-human kappa secondary antibody, MFI against concentration
T2 construct: FITC-E2 scFv, CD8 hinge and transmembrane region, 41BB and CD3 zeta; also called Anti FITC CAR-EC with CD8 hinge; anti-FITC CAR
T2 sequence (chain, as listed by the source mutant limits assumed): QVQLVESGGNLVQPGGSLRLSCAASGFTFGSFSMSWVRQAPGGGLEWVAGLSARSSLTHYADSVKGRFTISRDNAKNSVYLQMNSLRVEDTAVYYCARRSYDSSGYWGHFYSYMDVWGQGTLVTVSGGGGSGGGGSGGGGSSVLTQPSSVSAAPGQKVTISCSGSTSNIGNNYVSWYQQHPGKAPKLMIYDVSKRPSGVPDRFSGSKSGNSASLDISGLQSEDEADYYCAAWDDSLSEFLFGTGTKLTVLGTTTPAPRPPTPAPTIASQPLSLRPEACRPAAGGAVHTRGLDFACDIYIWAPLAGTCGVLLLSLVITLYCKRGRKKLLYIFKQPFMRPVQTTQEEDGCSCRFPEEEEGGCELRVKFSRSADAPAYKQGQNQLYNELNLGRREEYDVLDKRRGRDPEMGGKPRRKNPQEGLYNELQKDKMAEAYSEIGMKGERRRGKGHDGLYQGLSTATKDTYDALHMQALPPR
Method: (§1) Cells were incubated with indicated switch antibodies at 4° C. for 30-60 min and washed twice with staining buffer (1% BSA in PBS). […] After several washes, samples were acquired on a BD LSR II or BD Accuri C6 and analyzed using FlowJo 7.6.2 software.
(§2) Briefly, cells were incubated with indicated switch antibodies at 4° C. for 30-60 min and washed twice with staining buffer (1% BSA in PBS). […] After several washes, samples were acquired on a BD LSR II or BD Accuri C6 and analyzed using FlowJo 7.6.2 software.

[4] = biological target: T2, CAR-FITC (CD8 hinge), anti-FITC …; assay: flow cytometry on anti-FITC CAR-T cells
Method: as §1, §2

T1 sequence (P20138 18-364): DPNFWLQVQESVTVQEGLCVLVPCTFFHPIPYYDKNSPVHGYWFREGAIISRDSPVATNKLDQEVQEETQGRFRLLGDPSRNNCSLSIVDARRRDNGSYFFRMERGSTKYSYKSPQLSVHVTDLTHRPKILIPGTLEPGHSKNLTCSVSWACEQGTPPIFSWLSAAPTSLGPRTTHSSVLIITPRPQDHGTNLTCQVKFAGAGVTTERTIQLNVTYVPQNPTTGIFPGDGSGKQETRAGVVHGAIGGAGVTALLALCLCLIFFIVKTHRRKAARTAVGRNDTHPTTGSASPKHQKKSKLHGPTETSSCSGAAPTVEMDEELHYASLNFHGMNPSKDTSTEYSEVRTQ

| Binder | EC50 [3] | further results |
| --- | --- | --- |
| anti-CD33 Fab (clone hM195) (Fab, V domains shown) VH: QVQLVQSGAEVKKPGSSVKVSCKASGYTFTDYNMHWVRQAPGQGLEWIGYIYPYNGGTGYNQKFKSKATITADESTNTAYMELSSLRSEDTAVYYCARGRPAMDYWGQGTLVTVSS VL: DIQMTQSPSSLSASVGDRVTITCRASESVDNYGISFMNWFQQKPGKAPKLLIYAASNQGSGVPSRFSGSGSGTDFTLNISSLQPDDFATYYCQQSKEVPWTFGQGTKVEIKR |  | EC50 (CD33 on MOLM14 cells [1]): 1800 nM |
| anti-CD33 hP67.6 AB-FITC switch (light chain G72 and heavy chain P75) (Fab, V domains shown, position 75 = pAzF conjugated with a cyclooctyne-PEG-FITC linker; position 72 = pAzF conjugated with a cyclooctyne-PEG-FITC linker) VH: EVQLVQSGAEVKKPGSSVKVSCKASGYTITDSNIHWVRQAPGQSLEWIGYIYPYNGGTDYNQKFKNRATLTVDNXTNTAYMELSSLRSEDTAFYYCVNGNPWLAYWGQGTLVTVSS VL: DIQLTQSPSTLSASVGDRVTITCRASESLDNYGIRFLTWFQQKPGKAPKLLMYAASNQGSGVPSRFSGSGSXTEFTLTISSLQPDDFATYYCQQTKEVPWSFGQGTKVEVKR |  | EC50 of cytotoxicity of anti-FITC CAR-T cells against MOLM14 cells (CD33 on MOLM14 cells [2]): 0.0065 nM; efficacy in MOLM14 against the optimized anti-CD33 hM195 CD-FITC switch (CD33 on MOLM14 cells [2]): ~3 fold |
| anti-CD33 Fab (clone hP67.6) (Fab, V domains shown) VH: EVQLVQSGAEVKKPGSSVKVSCKASGYTITDSNIHWVRQAPGQSLEWIGYIYPYNGGTDYNQKFKNRATLTVDNPTNTAYMELSSLRSEDTAFYYCVNGNPWLAYWGQGTLVTVSS VL: DIQLTQSPSTLSASVGDRVTITCRASESLDNYGIRFLTWFQQKPGKAPKLLMYAASNQGSGVPSRFSGSGSGTEFTLTISSLQPDDFATYYCQQTKEVPWSFGQGTKVEVKR |  | EC50 (CD33 on MOLM14 cells [1]): 3.96 nM |
| random anti-CD19 (FMC63) Fab FITC conjugate (Fab, V domains shown, FITC-PEG4 by NHS chemistry at the N-terminal amino group (~58% of the conjugates); FITC-PEG4 by NHS chemistry at lysines, largely K31 (~20%) and K141 (~68.4%); paragraph 560 prints positions 31 and 145, Heterogeneous mixture, average FITC to antibody ratio of 2; also called random conjugate; Random (DAR 2)) VH: EVKLQESGPGLVAPSQSLSVTCTVSGVSLPDYGVSWIRQPPRKGLEWLGVIWGSETTYYNSALKSRLTIIKDNSKSQVFLKMNSLQTDDTAIYYCAKHYYYGGSYAMDYWGQGTSVTVSS VL: DIQMTQTTSSLSASLGDRVTISCRASQDISKYLNWYQQKPDGTVKLLIYHTSRLHSGVPSRFSGSGSGTDYSLTISNLEQEDIATYFCQQGNTLPYTFGGGTKLEIKR | 0.0029 nM |  |
| anti-CD19 (FMC63) Fab B-FITC (heavy chain S74) (Fab, V domains shown, position 74 = pAzF conjugated with BCN-PEG4-FITC, Monovalent, proximal site; also called HS74) VH: EVKLQESGPGLVAPSQSLSVTCTVSGVSLPDYGVSWIRQPPRKGLEWLGVIWGSETTYYNSALKSRLTIIKDNSKSQVFLKMNSLQTDDTAIYYCAKHYYYGGSYAMDYWGQGTSVTVSS VL: DIQMTQTTSSLSASLGDRVTISCRASQDISKYLNWYQQKPDGTVKLLIYHTSRLHSGVPSRFSGSGSGTDYSLTISNLEQEDIATYFCQQGNTLPYTFGGGTKLEIKR | 0.0091 nM |  |
| anti-CD19 (FMC63) Fab EF-FITC (light chain S202 and heavy chain K136) (Fab, V domains shown, position 136 of the whole heavy chain = pAzF conjugated with BCN-PEG4-FITC; position 202 of the whole light chain = pAzF conjugated with BCN-PEG4-FITC, Bivalent, distal sites; also called LS202/HK136) VH: EVKLQESGPGLVAPSQSLSVTCTVSGVSLPDYGVSWIRQPPRKGLEWLGVIWGSETTYYNSALKSRLTIIKDNSKSQVFLKMNSLQTDDTAIYYCAKHYYYGGSYAMDYWGQGTSVTVSS VL: DIQMTQTTSSLSASLGDRVTISCRASQDISKYLNWYQQKPDGTVKLLIYHTSRLHSGVPSRFSGSGSGTDYSLTISNLEQEDIATYFCQQGNTLPYTFGGGTKLEIKR | 0.0029 nM | EC50 [4]: ~3 nM |
| anti-CD19 (FMC63) Fab F-FITC (heavy chain K136) (Fab, V domains shown, position 136 of the whole heavy chain = pAzF conjugated with BCN-PEG4-FITC, Monovalent, distal site; also called HK136) VH: EVKLQESGPGLVAPSQSLSVTCTVSGVSLPDYGVSWIRQPPRKGLEWLGVIWGSETTYYNSALKSRLTIIKDNSKSQVFLKMNSLQTDDTAIYYCAKHYYYGGSYAMDYWGQGTSVTVSS VL: DIQMTQTTSSLSASLGDRVTISCRASQDISKYLNWYQQKPDGTVKLLIYHTSRLHSGVPSRFSGSGSGTDYSLTISNLEQEDIATYFCQQGNTLPYTFGGGTKLEIKR | 0.0092 nM |  |
| anti-CD19 (FMC63) Fab E-FITC (light chain S202) (Fab, V domains shown, position 202 of the whole light chain = pAzF conjugated with BCN-PEG4-FITC, Monovalent, distal site; also called LS202) VH: EVKLQESGPGLVAPSQSLSVTCTVSGVSLPDYGVSWIRQPPRKGLEWLGVIWGSETTYYNSALKSRLTIIKDNSKSQVFLKMNSLQTDDTAIYYCAKHYYYGGSYAMDYWGQGTSVTVSS VL: DIQMTQTTSSLSASLGDRVTISCRASQDISKYLNWYQQKPDGTVKLLIYHTSRLHSGVPSRFSGSGSGTDYSLTISNLEQEDIATYFCQQGNTLPYTFGGGTKLEIKR | 0.007 nM |  |
| anti-CD19 (FMC63) Fab AB-FITC (light chain G68 and heavy chain S74) (Fab, V domains shown, position 74 = pAzF conjugated with BCN-PEG4-FITC; position 68 = pAzF conjugated with BCN-PEG4-FITC, Bivalent, proximal sites; also called anti-CD19 AB-FITC; LG68/HS74) VH: EVKLQESGPGLVAPSQSLSVTCTVSGVSLPDYGVSWIRQPPRKGLEWLGVIWGSETTYYNSALKSRLTIIKDNSKSQVFLKMNSLQTDDTAIYYCAKHYYYGGSYAMDYWGQGTSVTVSS VL: DIQMTQTTSSLSASLGDRVTISCRASQDISKYLNWYQQKPDGTVKLLIYHTSRLHSGVPSRFSGSGSGTDYSLTISNLEQEDIATYFCQQGNTLPYTFGGGTKLEIKR | 0.0034 nM |  |
| anti-CD19 (FMC63) Fab A-FITC (light chain G68) (Fab, V domains shown, position 68 = pAzF conjugated with BCN-PEG4-FITC, Monovalent, proximal site; also called LG68) VH: EVKLQESGPGLVAPSQSLSVTCTVSGVSLPDYGVSWIRQPPRKGLEWLGVIWGSETTYYNSALKSRLTIIKDNSKSQVFLKMNSLQTDDTAIYYCAKHYYYGGSYAMDYWGQGTSVTVSS VL: DIQMTQTTSSLSASLGDRVTISCRASQDISKYLNWYQQKPDGTVKLLIYHTSRLHSGVPSRFSGSGSGTDYSLTISNLEQEDIATYFCQQGNTLPYTFGGGTKLEIKR | 0.0094 nM |  |
| anti-CD19 (FMC63) Fab C-FITC (light chain T109) (Fab, V domains shown, position 109 of the whole light chain = pAzF conjugated with BCN-PEG4-FITC, Monovalent, medial site; also called LT109) VH: EVKLQESGPGLVAPSQSLSVTCTVSGVSLPDYGVSWIRQPPRKGLEWLGVIWGSETTYYNSALKSRLTIIKDNSKSQVFLKMNSLQTDDTAIYYCAKHYYYGGSYAMDYWGQGTSVTVSS VL: DIQMTQTTSSLSASLGDRVTISCRASQDISKYLNWYQQKPDGTVKLLIYHTSRLHSGVPSRFSGSGSGTDYSLTISNLEQEDIATYFCQQGNTLPYTFGGGTKLEIKR | 0.0064 nM |  |
| anti-CD19 (FMC63) Fab D-FITC (heavy chain A121) (Fab, V domains shown, position 121 of the whole heavy chain = pAzF conjugated with BCN-PEG4-FITC, Monovalent, medial site; also called HA121) VH: EVKLQESGPGLVAPSQSLSVTCTVSGVSLPDYGVSWIRQPPRKGLEWLGVIWGSETTYYNSALKSRLTIIKDNSKSQVFLKMNSLQTDDTAIYYCAKHYYYGGSYAMDYWGQGTSVTVSS VL: DIQMTQTTSSLSASLGDRVTISCRASQDISKYLNWYQQKPDGTVKLLIYHTSRLHSGVPSRFSGSGSGTDYSLTISNLEQEDIATYFCQQGNTLPYTFGGGTKLEIKR | 0.0095 nM |  |
